Data: US9090686B2, “Antibodies for the treatment of HIV” (Pierre Fabre Medicament, priority 2009, dated 2015)
Substitutions are numbered along the chain they refer to.

B1: 515H7: murine anti-CXCR4 monoclonal antibody; light chain variable domain SEQ ID No. 7, heavy chain variable domain SEQ ID No. 8 (antibody, listed as Mus musculus, V domains shown)
VH: EVNLVESGGGLVQPGGSLRLSCATSGFTFTDNYMSWVRQPPGKALEWLGFIRNKANGYTTDYSASVRGRFTISRDNSQSILYLQMNALRAEDSATYYCARDVGSNYFDYWGQGTTLTVSS
VL: DIVMSQSPSSLAVSAGEKVTMSCKSSQSLFNSRTRKNYLAWYQQKPGQSPKLLIYWASARDSGVPARFTGSGSETYFTLTISRVQAEDLAVYYCMQSFNLRTFGGGTKLEIK
B2: c515H7: chimeric antibody 515H7: murine variable domains fused to human Ckappa and IgG1/IgG2/IgG4 constant domains; isotype tested not stated (antibody, V domains shown)
VH: B1 VH
VL: B1 VL
B3: 301aE5: murine anti-CXCR4 monoclonal antibody; light chain variable domain SEQ ID No. 34, heavy chain variable domain SEQ ID No. 35 (antibody, listed as Mus musculus, V domains shown)
VH: QVQLKESGPGLVAPSQSLSITCTVSGFSLTDYGVYWVRQPPGKGLEWLGMIWGDGTTDYNSALKSRLSISKDNSKSQVFLKMNTLQTDDTARYYCARGRQFGFDYWGQGTTLTVSS
VL: B1 VL with S22R, Y55F, A59I, D61E, A66D, E74G, Y76D, R83S, M95K, F98Y

Key:
[1] = molecular target: T1, native form of CXCR4 expressed at the cell surface of monocytes and T lymphocytes (Homo sapiens, UniProt P61073); experiment: FACS binding to peripheral blood mononuclear cells (whole blood); details: CD3 positive and CD14 positive cells, whole blood of healthy donor
T1 construct: the native form of CXCR4 expressed at the cell surface of monocytes and T lymphocytes; endogenous in cells; host or cells: whole blood (buffy coat) of a healthy donor; CD14+ monocytes and CD3+ T cells
T1 sequence (P61073 whole entry): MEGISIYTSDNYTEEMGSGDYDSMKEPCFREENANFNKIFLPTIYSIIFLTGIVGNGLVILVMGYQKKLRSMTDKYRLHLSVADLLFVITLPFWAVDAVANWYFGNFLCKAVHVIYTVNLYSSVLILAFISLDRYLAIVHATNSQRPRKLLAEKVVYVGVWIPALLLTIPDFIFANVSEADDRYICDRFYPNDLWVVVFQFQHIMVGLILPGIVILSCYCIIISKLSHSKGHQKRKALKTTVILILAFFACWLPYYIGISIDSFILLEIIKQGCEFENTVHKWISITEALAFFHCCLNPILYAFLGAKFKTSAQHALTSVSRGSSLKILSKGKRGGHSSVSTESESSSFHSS
Protocol: Blood was collected as buffy coat from healthy donor. 100 μl of whole blood was incubated with anti-human CXCR4 antibodies (clones 515H7 and 301aE5) at the indicated concentration for 20 minutes at 4° C. Blood was washed three times in PBS-BSA 1%-NaN3 0.01% and incubated with goat anti-human Alexa 488 IgG diluted 1:500 (Invitrogen) for 20 minutes at 4° C. Cells were then washed and incubated with CD14-PE (Caltag) or CD3-PE (Caltag) for 10 minutes at 4° C. and washed three times. Red blood cells were lysed with High-Yield lyse solution (Caltag) for 10 minutes at room temperature. Cells were analyzed immediately using Facscalibur (Becton-Dickinson). CXCR4 expression on monocytes was done on CD14 positive cells and CXCR4 expression on T cell was done on CD3 positives cells (FIG. 1). Results are expressed in Antigen Binding Capacity (ABC).

[2] = system: HIV-1 primary isolate KON (X4 virus); experiment: HIV-1 KON replication in PHA-activated human PBMC, single cycle neutralization, p24 FACS (Example 5); format: cell-based; details: HIV-1 KON replication in PBMC, molar value in brackets
Protocol: PBMC from normal donors seronegative for HIV-1 were isolated from buffy coats or cytapheresis by Ficoll-Hypaque gradient centrifugation. PBMC were activated in the presence of PHA in RPMI 1640 cell culture medium containing 25 mM HEPES, 5 ml penicillin (10000 U/ml)-streptomycin (10000 μg/ml) 2 mM L-glutamine, supplemented with 10% heat-inactivated FCS and were used as cellular targets in a single cycle neutralization assay. HIV-1 replication in primary human PBMC was performed by analyzing intracellular staining of viral p24 antigen by FACS analysis. Briefly, 25 μl per well of various dilutions of Mabs 515H7, 301aE5 and 12G5 (R&D Systems) or culture medium as control (RPMI 1640, 10% FCS, 0.1% IL-2), were incubated for 1 h at 37° C. with 25 μl per well of HIV-1 KON X4 primary isolate dilution, in duplicate. PHA-activated human PBMC (25 μl/well) at 20×10^6 cells/ml were added to the Mab/virus mixture in a 96-well plate (U-bottom, Costar 3599) and cultured for 24 to 36 hours at 37° C. in RPMI 1640 10% FCS and 0.1% IL-2. […] To detect HIV-infected PBMC, intracellular staining of viral p24 antigen was performed and analyzed by flow cytometry. […] The percentage of p24-positive cells in the different samples was determined by gating 20,000 events on a living cell population. The living cell subsets were analyzed for p24 expression relative to background staining of uninfected cells. […]

human CXCR4 = human CXCR4 (Homo sapiens, UniProt P61073); experiment: FACS binding to NIH3T3-hCXCR4 transfected cells; parameters: expressed in transfected cells; host or cells: NIH3T3 (mouse fibroblasts); details: for binding to human CXCR4-NIH3T3 transfected cell line (in words): FACS; for NIH3T3-CXCR4 (MFI): Mab 10 μg/ml, Mean Fluorescence Intensity by FACS
Chain of human CXCR4 (P61073 whole entry): as above
Protocol: In this experiment, the specific binding to human CXCR4 (hCXCR4) of anti-CXCR4 Mabs 515H7 and 301aE5 was examined by FACS analysis.
(§1) NIH3T3 and NIH3T3-hCXCR4 transfected cells were incubated with 10 μg/ml of monoclonal antibodies 515H7 and 301aE5. The cells were then washed with 1% BSA/PBS/0.01% NaN3. Next, Alexa-labeled secondary antibodies were added to the cells and were allowed to incubate at 4° C. for 20 min. The cells were then washed again two times. Following the second wash, FACS analysis was performed.
as §1, with “NIH3T3-hCXCR4” for “NIH3T3 and NIH3T3-hCXCR4”, “a dose range” for “10 μg/ml”, “antibody c515H7 from 0 μg/ml to 10 μg/ml.” for “antibodies 515H7 and 301aE5.”, “1%BSA/PBS/0.01%” for “1% BSA/PBS/0.01%”
NIH3T3, NIH3T3-hCXCR4 transfected were incubated with 0 to 10 μg/mL of humanized Mabs 515H7 (hz515H7 VH1 D76N VL2, hz515H7 VH1 D76N VL2.1, hz515H7 VH1 D76N VL2.2, hz515H7 VH1 D76N VL2.3) for 20 min at 4° C. in the dark in 100 μl Facs buffer. After 3 washing in Facs buffer, cells were incubated with the secondary antibody, a goat anti-human Alexa 488 (dilution 1/500), for 20 minutes at 4° C. in the dark. After 3 washing in Facs buffer, propidium iodide was added in each well and only viable cells were analyzed by Facs. At least 5000 viable cells were assessed to evaluate the mean value of fluorescence intensity for each condition.

Row | Molecule | staining of T lymphocytes and monocytes [1] | IC90 [2] [nM] | binding to human CXCR4-NIH3T3 transfected cell line (in words) (human CXCR4) | NIH3T3-CXCR4 (MFI) (human CXCR4)
1 | B1 | stained both T lymphocytes (FIG. 2A) and monocytes (FIG. 2B) | 66 | bind specifically | 2752
2 | B2 |  |  | bound specifically | 
3 | B3 | stained both T lymphocytes (FIG. 2A) and monocytes (FIG. 2B) | 1000 | bind specifically | 1367
